For assay [1], the target named is RRR-type mutant ZFA36-ND1 (ZFA36 zinc finger array, TGAAARA linker, ND1 D489R/N543R) (Bacillus SGD-V-76). The assay can be described thus: cell-based or functional assay.
The target in assay [2] is RRR-type mutant ZFA36-FokI-ND (ZFA36 zinc finger array, TGAAARA linker, FokI nuclease domain D483R/H537R) (UniProt P14870). In words: cell-based or functional assay.

Data on two substances can be found in patent US20210332339A1.

Sequence of RRR-type mutant ZFA36-FokI-ND (ZFA36 zinc finger array, TGAAARA linker, FokI nuclease domain D483R/H537R) (P14870 other isoform, or with tags, fused parts or gaps D483R H537R D483R H537R): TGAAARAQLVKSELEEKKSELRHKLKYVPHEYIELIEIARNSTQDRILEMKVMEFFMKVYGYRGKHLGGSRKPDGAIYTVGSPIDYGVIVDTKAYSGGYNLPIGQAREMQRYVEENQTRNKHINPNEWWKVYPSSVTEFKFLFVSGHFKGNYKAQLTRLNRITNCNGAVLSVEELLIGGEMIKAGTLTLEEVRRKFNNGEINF

“DDD-type mutant ZFL1-FokI-ND (hPGRN_ZFL1 zinc finger array, TGAAARA linker, FokI nuclease domain R487D/N496D) (from UniProt P14870 384-579) (enzyme)” returned a cleavage activity of the reporter, SSA reporter assay, relative to the FokI-ND homodimer type in assay [1] of 60%. In assay [2], this substance showed a cleavage activity of the target sequence (ZFL1-ZFA36) on the reporter, SSA reporter assay, relative to ZFA36-FokI of 60%.

For “DDD-type mutant ZFL1-ND1 (hPGRN_ZFL1 zinc finger array, TGAAARA linker, ND1 R493D/N502D) (enzyme)”, the cleavage activity of the target sequence (ZFL1-ZFA36) on the reporter, SSA reporter assay, relative to ZFA36-FokI in assay [1] is 1.6 times. This substance returned a cleavage activity of the reporter, SSA reporter assay in assay [2] of 80%.
